For experiment [1], the target named is T1, Conjugate 45b (human, UniProt P0DOX5 203-448 = IgG part). The experiment is described as follows: ELISA: conjugate coated on the plate, His-tagged receptor titrated, anti-His HRP detection.
The target of experiment [2] is T1, Conjugate 45b. The experiment can be described thus: ELISA. On the technique in general: An ELISA detects its analyte on a solid surface through an enzyme-linked reagent.

The values below come from patent publication US20260108618A1 (published 2026).

B1: rat FcγR3A/CD16a (receptor)
chain: GLQKAVVNLDPEWVRVLEEDCVILRCQGTFSPEDNSTKWFHNKSLISHQDANYVIQSARVKDSGMYRCQTAFSALSDPVQLDVHADWLLLQTTKRLFQEGDPIRLRCHSWRNTPVFKVTYLQNGKGKKYFHRNSELSISKATHADSGSYFCRGIIGRNNISSASLQISIGDPTSPSSFLPWHQ
For B1, the binding result with Conjugate 45b [1] is recorded as “binds”.

B2: human Fcγ RIIb (receptor)
chain: APPKAVLKLEPQWINVLQEDSVTLTCRGTHSPESDSIQWFHNGNLIPTHTQPSYRFKANNNDSGEYTCQTGQTSLSDPVHLTVLSEWLVLQTPHLEFQEGETIVLRCHSWKDKPLVKVTFFQNGKSKKFSRSDPNFSIPQANHSHSGDYHCTGNIGYTLYSSKPVTITVQAP
As to B2, the binding result with Conjugate 45b [2] was “binds”.

B3: mouse FcγR2B/CD32b (receptor)
chain: THDLPKAVVKLEPPWIQVLKEDTVTLTCEGTHNPGNSSTQWFHNGRSIRSQVQASYTFKATVNDSGEYRCQMEQTRLSDPVDLGVISDWLLLQTPQLVFLEGETITLRCHSWRNKLLNRISFFHNEKSVRYHHYSSNFSIPKANHSHSGDYYCKGSLGRTLHQSKPVTITVQGPKSSR
notes: also called murine Fcγ RIIb
For B3, the binding result with Conjugate 45b [2] is “binds”.
